Assay results as given in patent publication US20170022287A1 (Chugai, published 2017).

Experiments:
[1] = target: T1, CRD1; assay: ELISA, coated CD137-Fc protein 2 µg/mL, antibody 10 or 5 µg/mL, absorbance 620 nm; Non (uncoated well) 0.055
T1 construct: also called fragmented human CD137-Fc fusion protein CRD1
Experimental: (§1) Fragmented human CD137-Fc fusion proteins were diluted to 2 μg/mL in an aqueous sodium carbonate solution adjusted to pH9.6. Fifty μL of a diluted fragmented human CD137-Fc fusion protein was added individually to each well of a Nunc MaxiSorp flat-bottom 96 well plate (Nunc). This was allowed to stand at 4° C. overnight or longer, and then the plate was allowed to stand at room temperature for one hour so that the plate has the same temperature as the room temperature. The solution containing the fragmented human CD137-Fc fusion protein was removed by tilting, and each well was washed three times with 300 μL of Wash buffer (TBS containing 0.1% Tween20, TaKaRa). Next, 150 μL of blocking buffer (TBS containing 2% BSA) was added to each well, and this was allowed to stand for one hour or more. The blocking buffer was removed by tilting, and each well was washed three times with Wash Buffer in a similar manner to an earlier step. Then, 50 μL of an antibody solution prepared in advance by dilution with TBS to 10 μg/mL or 5 μg/mL was added to each well. This was subjected to a speed of 600 rpm or so for one hour at room temperature to bind the antibody to the immobilized antigen. […] 100 μL of a secondary antibody solution produced by 1000-fold dilution with TBS containing 0.1% Tween20 was added to each well. For the secondary antibody, ANTIBODY ALKALINE PHOSPHATASE CONJUGATE HUMAN IMMUNOGLOBULIN ABSORBED Goat Anti-Human Kappa Alkaline Phosphate from BIOSOURCE was used in the case of antibodies carrying a Kappa chain, and Human Lambda Light Chain Antibody; Goat anti-Human Lambda Light Chain Antibody Alkaline Phosphatase Conjugated from BETHYL LABORATORIES INC. was used in the case of antibodies carrying a Lambda chain. […] Color development was performed using the BluePhos Microwell kit from KPL. After the chromogenic reaction was stopped using the AP stop solution from KPL, the absorbance was measured at 620 nm on an absorptiometer.

[2] = target: T2, CRD1-2; assay: as above
T2 construct: also called fragmented human CD137-Fc fusion protein CRD1-2
Experimental: as §1

[3] = target: T3, CRD3-4; assay: as above
T3 construct: also called fragmented human CD137-Fc fusion protein CRD3-4
Experimental: as §1

[4] = target: T3, CRD3-4; assay: ELISA, coated CD137-Fc protein 2 µg/mL, antibody 10 or 5 µg/mL; absorbance 620 nm divided by that of the uncoated well
[5] = target: T1, CRD1; assay: ELISA, coated CD137-Fc protein 2 µg/mL, antibody 10 or 5 µg/mL, absorbance 620 nm; Non (uncoated well) 0.049
[6] = target: T4, CRD1-3; assay: as above
T4 construct: also called fragmented human CD137-Fc fusion protein CRD1-3

[7] = target: T2, CRD1-2; assay: as above
[8] = target: T5, CRD2-4; assay: as above
T5 construct: also called fragmented human CD137-Fc fusion protein CRD2-4

[9] = target: T6, CRD2-3; assay: as above
T6 construct: also called fragmented human CD137-Fc fusion protein CRD2-3

[10] = target: T3, CRD3-4; assay: as above
[11] = target: full-length human CD137-Fc fusion protein (human); assay: as above
[12] = target: T1, CRD1; assay: ELISA, coated CD137-Fc protein 2 µg/mL, antibody 10 or 5 µg/mL; absorbance 620 nm divided by that of the uncoated well
[13] = target: T4, CRD1-3; assay: as above
[14] = target: T2, CRD1-2; assay: as above
[15] = target: T5, CRD2-4; assay: as above
[16] = target: T6, CRD2-3; assay: as above
[17] = target: full-length human CD137-Fc fusion protein (human); assay: as above
[18] = target: T4, CRD1-3; assay: ELISA, coated CD137-Fc protein 2 µg/mL, antibody 10 or 5 µg/mL, absorbance 620 nm; Non (uncoated well) 0.101
[19] = target: T2, CRD1-2; assay: as above
[20] = target: T5, CRD2-4; assay: as above
[21] = target: T6, CRD2-3; assay: as above
[22] = target: T3, CRD3-4; assay: as above
[23] = target: full-length human CD137-Fc fusion protein (human); assay: as above
[24] = target: T1, CRD1; assay: ELISA, coated CD137-Fc protein 2 µg/mL, antibody 10 or 5 µg/mL, absorbance 620 nm; Non (uncoated well) 0.4435
[25] = target: T4, CRD1-3; assay: as above
[26] = target: T2, CRD1-2; assay: as above
[27] = target: T5, CRD2-4; assay: as above
[28] = target: T6, CRD2-3; assay: as above
[29] = target: T3, CRD3-4; assay: as above
[30] = target: full-length human CD137-Fc fusion protein (human); assay: as above

T4 sequence (chain, as listed by the source limits assumed): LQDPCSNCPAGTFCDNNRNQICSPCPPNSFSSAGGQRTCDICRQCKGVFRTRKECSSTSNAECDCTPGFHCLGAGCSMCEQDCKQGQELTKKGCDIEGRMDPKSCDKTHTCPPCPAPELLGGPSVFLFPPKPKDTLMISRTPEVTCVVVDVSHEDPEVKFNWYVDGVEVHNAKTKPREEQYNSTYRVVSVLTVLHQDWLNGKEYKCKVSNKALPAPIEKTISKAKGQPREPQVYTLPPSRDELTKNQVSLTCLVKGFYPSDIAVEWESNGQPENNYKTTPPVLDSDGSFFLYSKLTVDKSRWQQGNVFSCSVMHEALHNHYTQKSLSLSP
T5 sequence (chain, as listed by the source limits assumed): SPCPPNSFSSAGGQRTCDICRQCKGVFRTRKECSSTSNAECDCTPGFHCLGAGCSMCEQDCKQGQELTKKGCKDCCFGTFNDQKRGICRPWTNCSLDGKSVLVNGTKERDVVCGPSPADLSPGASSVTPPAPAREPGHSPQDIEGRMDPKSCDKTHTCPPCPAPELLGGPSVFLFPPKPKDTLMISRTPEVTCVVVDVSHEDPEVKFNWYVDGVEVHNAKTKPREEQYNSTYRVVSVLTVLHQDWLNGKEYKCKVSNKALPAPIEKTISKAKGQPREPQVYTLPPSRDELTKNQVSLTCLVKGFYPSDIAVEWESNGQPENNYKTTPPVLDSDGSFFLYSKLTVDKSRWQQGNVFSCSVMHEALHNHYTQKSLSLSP
T1 sequence (chain, as listed by the source limits assumed): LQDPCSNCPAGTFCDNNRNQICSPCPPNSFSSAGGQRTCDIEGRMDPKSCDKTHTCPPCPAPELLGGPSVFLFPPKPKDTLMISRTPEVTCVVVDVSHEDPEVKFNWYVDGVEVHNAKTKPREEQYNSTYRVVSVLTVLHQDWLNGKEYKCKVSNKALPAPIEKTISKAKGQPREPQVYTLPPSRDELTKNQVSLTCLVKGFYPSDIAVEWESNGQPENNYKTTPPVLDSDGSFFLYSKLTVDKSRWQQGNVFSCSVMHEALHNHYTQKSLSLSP
Sequence of full-length human CD137-Fc fusion protein (human) (chain, as listed by the source limits assumed): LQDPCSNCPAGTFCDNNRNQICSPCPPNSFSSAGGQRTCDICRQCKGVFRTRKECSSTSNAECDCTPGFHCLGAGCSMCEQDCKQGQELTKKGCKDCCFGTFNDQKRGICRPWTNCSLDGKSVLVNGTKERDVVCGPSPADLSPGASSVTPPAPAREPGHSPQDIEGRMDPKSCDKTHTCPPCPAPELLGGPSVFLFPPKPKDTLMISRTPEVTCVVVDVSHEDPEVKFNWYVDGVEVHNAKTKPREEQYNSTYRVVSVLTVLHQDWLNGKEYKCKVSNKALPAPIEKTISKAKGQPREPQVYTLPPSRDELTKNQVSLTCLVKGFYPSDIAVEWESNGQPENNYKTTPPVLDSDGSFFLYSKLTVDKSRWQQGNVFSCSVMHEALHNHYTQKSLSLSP
T3 sequence (chain, as listed by the source limits assumed): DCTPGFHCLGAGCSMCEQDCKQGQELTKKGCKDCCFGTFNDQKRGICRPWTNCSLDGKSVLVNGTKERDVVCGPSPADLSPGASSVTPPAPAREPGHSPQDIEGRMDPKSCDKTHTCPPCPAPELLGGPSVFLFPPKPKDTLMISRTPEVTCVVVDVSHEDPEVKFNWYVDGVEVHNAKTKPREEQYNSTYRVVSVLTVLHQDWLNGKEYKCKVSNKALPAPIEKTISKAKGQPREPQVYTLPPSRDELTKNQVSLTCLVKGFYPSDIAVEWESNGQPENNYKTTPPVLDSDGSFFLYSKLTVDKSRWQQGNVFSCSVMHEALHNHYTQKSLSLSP
T2 sequence (chain, as listed by the source limits assumed): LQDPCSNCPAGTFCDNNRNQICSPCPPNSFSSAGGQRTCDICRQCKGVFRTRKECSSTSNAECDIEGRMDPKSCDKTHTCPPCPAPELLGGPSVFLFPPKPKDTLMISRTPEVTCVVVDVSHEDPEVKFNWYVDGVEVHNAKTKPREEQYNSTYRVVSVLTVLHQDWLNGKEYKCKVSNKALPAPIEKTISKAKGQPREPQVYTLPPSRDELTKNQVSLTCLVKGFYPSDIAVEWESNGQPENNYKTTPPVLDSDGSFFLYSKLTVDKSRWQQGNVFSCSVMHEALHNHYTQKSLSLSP
T6 sequence (chain, as listed by the source limits assumed): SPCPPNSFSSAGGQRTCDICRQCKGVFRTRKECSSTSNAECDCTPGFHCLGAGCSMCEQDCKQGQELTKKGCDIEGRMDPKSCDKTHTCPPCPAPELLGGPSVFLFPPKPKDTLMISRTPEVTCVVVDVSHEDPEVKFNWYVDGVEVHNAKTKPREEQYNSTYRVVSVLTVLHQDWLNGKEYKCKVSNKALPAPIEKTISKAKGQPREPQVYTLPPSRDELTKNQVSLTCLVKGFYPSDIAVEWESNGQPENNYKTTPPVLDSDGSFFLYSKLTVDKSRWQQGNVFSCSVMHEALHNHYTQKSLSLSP

B1: M (antibody, human IgG1, lambda, V domains shown)
VH: EVQLVQSGAEVKKPGESLRISCKGSGYSFSTYWISWVRQMPGKGLEWMGKIYPGDSYTNYSPSFQGQVTISADKSISTAYLQWSSLKASDTAMYYCARGYGIFDYWGQGTLVTVSS
VL: SYELTQPPSVSVSPGQTASITCSGDNIGDQYAHWYQQKPGQSPVLVIYQDKNRPSGIPERFSGSNSGNTATLTISGTQAMDEADYYCATYTGFGSLAVFGGGTKLTVLQ
notes: also called Control M
- ELISA color development level [1]: 0.093
- ELISA color development level [2]: 0.085
- ELISA color development level [3]: 2.26
- Ratio with respect to Non-Coating [4]: 41.1

B2: B (antibody, human IgG1, kappa, V domains shown)
VH: QVQLQQWGAGLLKPSETLSLTCAVYGGSFSGYYWSWIRQSPEKGLEWIGEINHGGYVTYNPSLESRVTISVDTSKNQFSLKLSSVTAADTAVYYCARDYGPGNYDWYFDLWGRGTLVTVSS
VL: EIVLTQSPATLSLSPGERATLSCRASQSVSSYLAWYQQKPGQAPRLLIYDASNRATGIPARFSGSGSGTDFTLTISSLEPEDFAVYYCQQRSNWPPALTFGGGTKVEIKR
notes: also called Control B
- ELISA color development level [5]: 1.75
- ELISA color development level [6]: 2.33
- ELISA color development level [7]: 2.58
- ELISA color development level [8]: 0.097
- ELISA color development level [9]: 0.089
- ELISA color development level [10]: 0.074
- ELISA color development level [11]: 2.67
- Ratio with respect to Non-Coating [12]: 35.7
- Ratio with respect to Non-Coating [13]: 47.5
- Ratio with respect to Non-Coating [14]: 52.7
- Ratio with respect to Non-Coating [15]: 2
- Ratio with respect to Non-Coating [16]: 1.8
- Ratio with respect to Non-Coating [4]: 1.5
- Ratio with respect to Non-Coating [17]: 54.6

B3: R10 (antibody, V domains shown)
VH: not shown
VL: DIQMTQSPSSLSASVGDRVTITCRASQSISSYLNWYQQKPGKAPKLLIYAASSLQSGVPSRFSGSGSGTDFTLTISSLQPEDFATYYCQQFDNFPLTFGGGTKVEIK
notes: Synthetic library clone; Fab on phage in the phage ELISA
- ELISA color development level [18]: 2.46
- ELISA color development level [19]: 0.222
- ELISA color development level [20]: 2.46
- ELISA color development level [21]: 2.64
- ELISA color development level [22]: 2.75
- ELISA color development level [23]: 2.59
- Ratio with respect to Non-Coating [13]: 24.4
- Ratio with respect to Non-Coating [14]: 2.2
- Ratio with respect to Non-Coating [15]: 24.3
- Ratio with respect to Non-Coating [16]: 26.1
- Ratio with respect to Non-Coating [4]: 27.2
- Ratio with respect to Non-Coating [17]: 25.6

B4: R7 (antibody, V domains shown)
VH: QVQLLESGGGLVQPGGSLRLSCAASGFTFSSYAMSWVRQAPGKGLEWVSAISGSGGSTYYADSVKGRFTISRDNSKNTLYLQMNSLRAEDTAVYYCARDRAMYHPSFNYWGQGTLVTVSS
VL: DIQMTQSPSSLSASVGDRVTITCRASQSISSYLNWYQQKPGKAPKLLIYAASSLQSGVPSRFSGSGSGTDFTLTISSLQPEDFATYYCQQFNSYPLTFGGGTKVEIK
notes: as for B3
- ELISA color development level [24]: 0.61
- ELISA color development level [25]: 2.23
- ELISA color development level [26]: 0.814
- ELISA color development level [27]: 2.19
- ELISA color development level [28]: 2.52
- ELISA color development level [29]: 2.63
- ELISA color development level [30]: 1.92
- Ratio with respect to Non-Coating [12]: 1.4
- Ratio with respect to Non-Coating [13]: 5
- Ratio with respect to Non-Coating [14]: 1.8
- Ratio with respect to Non-Coating [15]: 4.9
- Ratio with respect to Non-Coating [16]: 5.7
- Ratio with respect to Non-Coating [4]: 5.9
- Ratio with respect to Non-Coating [17]: 4.3
